Measurements taken from patent US20150307546A1.
Several values for one entry are separate records, joined by “and”; a condition that tells them apart may be missing. Equal entries are not always repeated.

Target: horseradish peroxidase (HRP) (horseradish) (UniProt P00433)
Test: affinity precipitation at varied ligand to HRP ratio; peroxidase activity assay

Chain of UniProt P00433 (P00433 31-338): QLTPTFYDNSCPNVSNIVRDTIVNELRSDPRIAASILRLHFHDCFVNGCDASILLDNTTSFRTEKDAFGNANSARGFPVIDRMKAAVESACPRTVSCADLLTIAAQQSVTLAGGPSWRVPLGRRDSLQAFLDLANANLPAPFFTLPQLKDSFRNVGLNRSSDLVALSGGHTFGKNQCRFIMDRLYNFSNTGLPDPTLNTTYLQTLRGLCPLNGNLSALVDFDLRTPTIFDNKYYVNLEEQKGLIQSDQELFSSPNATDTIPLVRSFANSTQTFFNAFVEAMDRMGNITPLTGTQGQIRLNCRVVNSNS

## RSL-ELP40 (fucose lectin from Ralstonia solanacearum fused by a 10 amino acid glycine rich linker to (designed binder)
  molar excess of ligand at which full recovery was approached (mol ligand per mol HRP): 15 and 20
